The labels stand for the following.
B2: His-MBP-RGNEF^1–275 (domain or fragment, human, UniProt Q8N1W1 1-275, looked up)
chain: MELSCSEAPLYGQMMIYAKFDKNVYLPEDAEFYFTYDGSHQRHVMIAERIEDNVLQSSVPGHGLQETVTVSVCLCSEGYSPVTMGSGSVTYVDNMACRLARLLVTQANRLTACSHQTLLTPFALTAGALPALDEELVLALTHLELPLEWTVLGSSSLEVSSHRESLLHLAMRWGLAKLSQFFLCLPGGVQALALPNEEGATPLDLALREGHSKLVEDVTNFQGRWSPSFSRVQLSEEASLHYIHSSETLTLTLNHTAEHLLEADIKLFRKYFWDR
notes: Detailed purification protocol is in the Supplementary Methods; also called His-NF242; NF242 (in the SPR experiments); source: E. coli, purified (Ni-IMAC); not shown: MBP, N-terminal, kept

Series [1] deals with B2. As to the kind of experiment: SPR; His-MBP-RGNEF^1–275 amine-coupled on a carboxymethyl dextran chip; TDP-43 fragments as analytes; 1× PBS, 0.1% Tween-20; 22°C.
Series [2] concerns the target T1, His-TDP-43 1-269 (human, UniProt Q13148 1-269). The series can be described thus: SPR; 100 nM TDP-43 1-269, no NF242; 10 mM Tris pH 8.0, 150 mM NaCl, 2 mM MgCl2, 0.05% Tween-20, 1 uM BSA; 30 min pre-incubation at room temperature; SPR at 22 C (stated for the protein-protein SPR); 80 RIU RNA immobilized. Particulars: protein: recombinant; tags: N-terminal 6xHis (pQE30); label: 3' biotin.
Target sequence in this assay (Q13148 1-269): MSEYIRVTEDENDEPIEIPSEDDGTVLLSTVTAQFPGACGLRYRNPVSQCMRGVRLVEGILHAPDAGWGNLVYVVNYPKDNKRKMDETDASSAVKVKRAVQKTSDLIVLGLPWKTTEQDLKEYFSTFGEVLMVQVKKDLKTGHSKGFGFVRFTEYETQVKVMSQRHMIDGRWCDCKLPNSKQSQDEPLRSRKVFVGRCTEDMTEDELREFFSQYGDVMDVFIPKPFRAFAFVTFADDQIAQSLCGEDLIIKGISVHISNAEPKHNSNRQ

In series [3] the target is T2, His-GST-TDP-43^wt (human, UniProt Q13148 1-414).
T2 construct: also called full-length wild-type TDP-43 with an N-terminal GST fusion; source: E. coli, purified (Ni-IMAC); not shown: GST, N-terminal, kept
T2 sequence (Q13148 whole entry, the tested form may be a part): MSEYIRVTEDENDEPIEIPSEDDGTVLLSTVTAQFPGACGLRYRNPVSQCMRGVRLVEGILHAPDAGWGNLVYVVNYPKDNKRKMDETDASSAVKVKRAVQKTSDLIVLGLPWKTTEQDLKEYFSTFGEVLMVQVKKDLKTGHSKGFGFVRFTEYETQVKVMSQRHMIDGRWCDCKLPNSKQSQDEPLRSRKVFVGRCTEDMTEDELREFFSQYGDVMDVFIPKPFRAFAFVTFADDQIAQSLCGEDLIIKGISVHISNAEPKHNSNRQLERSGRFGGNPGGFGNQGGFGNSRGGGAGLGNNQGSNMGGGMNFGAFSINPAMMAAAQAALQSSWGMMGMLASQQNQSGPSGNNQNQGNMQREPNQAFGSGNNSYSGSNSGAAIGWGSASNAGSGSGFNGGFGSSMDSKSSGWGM
The series can be described thus: SPR; His-MBP-RGNEF^1–275 amine-coupled on a carboxymethyl dextran chip (2000 to 8000 µRIU); His-GST-TDP-43^wt as analyte; 20 mM HEPES pH 7.5, 50 mM KCl, 0.5 mM MgCl2, 50 mM NaCl, 0.05% Tween-20; 22°C. Particulars: both partners purified. (SPR reads the build-up and loss of mass on a sensor chip optically.)

The target in series [4] is T1, His-TDP-43 1-269. The series can be described thus: SPR; competition: 3′-biotinylated RNA oligo on a neutravidin chip; 100 nM His-TDP-43^1–269 pre-incubated 30 min at room temperature with 1 or 10 μM His-MBP-RGNEF^1–275, then injected; 10 mM Tris pH 8.0, 150 mM NaCl, 2 mM MgCl2, 0.05% Tween-20, 1 μM BSA.

On to “His-TDP-43^1–269 (from UniProt Q13148 1-269) (domain or fragment)”, for which the Kd (as a rule, a measure of binding affinity in units of concentration) in series [1] is 4110 nM.

B1: His-RRM-1 (domain or fragment, human, UniProt Q13148 101-191, looked up)
chain: QKTSDLIVLGLPWKTTEQDLKEYFSTFGEVLMVQVKKDLKTGHSKGFGFVRFTEYETQVKVMSQRHMIDGRWCDCKLPNSKQSQDEPLRSR
notes: source: E. coli, purified (Ni-IMAC)
For B1, the binding result in series [1] (both partners purified) was “binds”.
For the molecule GUGUGUGAAUGAAUAAA (ssRNA) [3'-biotinylated RNA oligo], the binding result in series [2] is “binds”.
As for B2, in series [3], the affinity, expressed as Kd, was 1780 nM. Further, in series [4], the percent reduction of the signal of TDP-43 on the RNA chip at 1 μM NF242 is 10% and the percent reduction of the signal of TDP-43 on the RNA chip at 10 μM NF242 was 50%.

These data come from PMC11146434, “Mitigation of TDP-43 toxic phenotype by an RGNEF fragment in amyotrophic lateral sclerosis models” (Brain, 2023).
